Square brackets hold non-standard residues; d marks the D form. Ends that are not written are not given here.
Each substance was assayed against T1, mouse ADAMTS7 (Mus musculus, UniProt Q68SA9, E373Q) (assay: TMT10 TAILS N-terminomics, SMC1 experiment (Ad-mADAMTS7 WT vs EQ vs Luc, technical replicates, trypsin digest)). Details: TAILS neo-N-terminal peptide abundance; log fold change, Ad-mADAMTS7 EQ over Luc.
T1 construct: Full-length mouse Adamts7 1-1857 (Uniprot Q68SA9, WT or E373Q catalytic mutant); expressed in transfected cells; host or cells: Human Coronary Artery Smooth Muscle Cells (HCA-SMC, Lonza), adenovirus 50 MOI
T1 sequence (Q68SA9 221-1657 E373Q): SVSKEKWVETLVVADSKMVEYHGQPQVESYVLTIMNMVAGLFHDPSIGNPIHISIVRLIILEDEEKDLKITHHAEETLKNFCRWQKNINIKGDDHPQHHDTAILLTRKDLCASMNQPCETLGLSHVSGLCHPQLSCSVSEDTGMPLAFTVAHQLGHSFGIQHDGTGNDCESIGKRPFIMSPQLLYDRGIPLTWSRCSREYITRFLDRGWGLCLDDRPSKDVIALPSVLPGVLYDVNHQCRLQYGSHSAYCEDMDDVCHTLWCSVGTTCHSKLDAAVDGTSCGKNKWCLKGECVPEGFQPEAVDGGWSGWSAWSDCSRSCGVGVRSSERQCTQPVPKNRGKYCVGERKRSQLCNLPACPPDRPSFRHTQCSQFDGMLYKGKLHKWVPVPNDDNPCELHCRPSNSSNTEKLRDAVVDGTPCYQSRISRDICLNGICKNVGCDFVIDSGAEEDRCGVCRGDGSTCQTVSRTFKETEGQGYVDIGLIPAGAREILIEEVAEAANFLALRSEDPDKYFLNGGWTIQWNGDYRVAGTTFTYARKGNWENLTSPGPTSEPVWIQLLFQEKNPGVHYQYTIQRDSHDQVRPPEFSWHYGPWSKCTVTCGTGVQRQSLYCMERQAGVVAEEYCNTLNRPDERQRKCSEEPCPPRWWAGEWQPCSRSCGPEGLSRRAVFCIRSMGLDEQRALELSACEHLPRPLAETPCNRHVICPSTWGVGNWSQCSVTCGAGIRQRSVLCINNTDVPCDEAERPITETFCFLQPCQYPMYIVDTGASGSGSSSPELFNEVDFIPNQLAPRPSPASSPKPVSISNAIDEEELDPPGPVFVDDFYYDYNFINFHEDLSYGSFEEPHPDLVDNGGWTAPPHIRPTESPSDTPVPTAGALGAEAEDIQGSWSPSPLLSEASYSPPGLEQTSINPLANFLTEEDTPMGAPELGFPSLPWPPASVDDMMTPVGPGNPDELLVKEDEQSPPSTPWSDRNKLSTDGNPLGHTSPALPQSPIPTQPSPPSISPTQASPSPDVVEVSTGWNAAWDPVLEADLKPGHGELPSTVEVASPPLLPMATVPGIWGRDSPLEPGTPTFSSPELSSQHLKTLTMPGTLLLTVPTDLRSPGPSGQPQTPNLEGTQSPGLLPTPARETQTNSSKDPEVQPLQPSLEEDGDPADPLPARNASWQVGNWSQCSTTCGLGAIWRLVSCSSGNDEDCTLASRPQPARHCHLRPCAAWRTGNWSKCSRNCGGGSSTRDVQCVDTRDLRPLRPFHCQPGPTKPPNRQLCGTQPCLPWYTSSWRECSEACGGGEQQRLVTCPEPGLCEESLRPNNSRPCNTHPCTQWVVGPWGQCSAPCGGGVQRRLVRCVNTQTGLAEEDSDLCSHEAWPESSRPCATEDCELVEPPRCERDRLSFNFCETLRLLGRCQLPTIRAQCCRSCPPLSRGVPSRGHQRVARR
Type: cell-based
Summary of the method: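 Full-length mouse ADAMTS7 (WT or E373Q mutant, C-terminal 3xFLAG) or luciferase was transduced via adenovirus, 50 MOI, into HCA-SMC (SMC1, SMC2) or HUVEC. SMC1: pooled media, technical triplicates 400 ug; SMC2: process triplicates 300 ug; HUVEC: process triplicates 200 ug, bFGF2 10 ng/ml.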

logFC.mEQ.over.Luc	Substance
−0.14	HSPG2_4133 (DGFKGDLCEHEENPCQLR; listed as Homo sapiens)
0.09	HTRA1_33 (LAAGCPDR; listed as Homo sapiens)
0.00	IFI30_43 (YKTGNLYLR; listed as Homo sapiens)
−0.04	IGFBP3_31 (SAGLGPVVR; listed as Homo sapiens)
0.28	IGFBP3_32 (AGLGPVVR; listed as Homo sapiens)
−0.09	IGFBP3_200 (FSSESKR; listed as Homo sapiens)
0.29	IGFBP7_101 (AAGGPGVSGVCVCKSR; listed as Homo sapiens)
−0.53	LASP1_123 (HEEFEKSR; listed as Homo sapiens)
0.94	LGALS1_53 (HGDANTIVCNSKDGGAWGTEQR; listed as Homo sapiens)
0.57	LGALS3BP_447 (FQAPSDYR; listed as Homo sapiens)
−0.10	LOXL1_219 (VASAGVIYPYQPR; listed as Homo sapiens)
0.09	LOXL2_37 (FQQPAPEYHQPQAPANVAKIQLR; listed as Homo sapiens)
0.11	LOXL2_38 ([code q]QPAPEYHQPQAPANVAKIQLR; not fully specified; listed as Homo sapiens)
0.00	LOXL2_318 (AYKPEQPLVR; listed as Homo sapiens)
−0.11	LOX_58 (LSLGSQYQPQR; listed as Homo sapiens)
−0.16	LOX_80 (ANASAQQPR; listed as Homo sapiens)

logFC.mEQ.over.Luc	Substance
−0.30	LOX_81 (NASAQQPR; listed as Homo sapiens)
−0.22	LOX_123 (HWFQAGYSTSR; listed as Homo sapiens)
0.08	LOX_124 (WFQAGYSTSR; listed as Homo sapiens)
0.02	LOX_126 (QAGYSTSR; listed as Homo sapiens)
0.14	LTBP1_393 (LTATNFR; listed as Homo sapiens)
−0.01	LTBP1_494 (SVQIHQVSR; listed as Homo sapiens)
0.13	LTBP1_540 (HQQVIPHVYPVAAKTQLGR; listed as Homo sapiens)
−1.05	LTBP1_546 (HVYPVAAKTQLGR; listed as Homo sapiens)
−0.42	LTBP2_485 (SVQIHQVAQVR; listed as Homo sapiens)
0.28	LTBP2_533 (SGEPPRPLPPAAPR; listed as Homo sapiens)
0.05	LTBP2_677 (SLGPGTCTLPLAQR; listed as Homo sapiens)
0.29	LTBP2_760 (SSGALPGPAER; listed as Homo sapiens)
0.03	LTBP2_1023 (GKCTNLEGSFR; listed as Homo sapiens)
0.31	LTBP2_1371 (SGQKGHAPCSSVLGR; listed as Homo sapiens)
0.23	LTBP2_1560 (TTYTECCCQDGEAWSQQCALCPPR; listed as Homo sapiens)
0.32	LTBP2_1584 (SSEVYAQLCNVAR; listed as Homo sapiens)

Source: patent US20240368668A1, “SUBSTRATES AND BIOMARKERS OF ADAMTS7” (The Broad Institute, Inc., priority 2021, published 2024)
